Measured values taken from patent publication US20250076311A1 (Chugai, published 2025).

T1: cynomolgus monkey FcγRIIIaS extracellular domain with C-terminal His-tag (cynomolgus monkey, UniProt Q8SPW2 21-206 at identity 1.00))
T1 construct: also called cyno FcgRIIIaS; cynoFcγRIIIaS
T1 chain: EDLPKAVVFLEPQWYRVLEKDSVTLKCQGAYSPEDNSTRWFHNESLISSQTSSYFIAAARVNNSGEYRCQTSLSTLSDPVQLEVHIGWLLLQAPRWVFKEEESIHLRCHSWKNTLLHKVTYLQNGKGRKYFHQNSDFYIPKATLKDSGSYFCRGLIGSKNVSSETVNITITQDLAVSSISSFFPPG

T2: human FcγRIIb extracellular domain with C-terminal His-tag (human, UniProt P31994 43-217)
T2 construct: also called human FcgRIIb
T2 sequence: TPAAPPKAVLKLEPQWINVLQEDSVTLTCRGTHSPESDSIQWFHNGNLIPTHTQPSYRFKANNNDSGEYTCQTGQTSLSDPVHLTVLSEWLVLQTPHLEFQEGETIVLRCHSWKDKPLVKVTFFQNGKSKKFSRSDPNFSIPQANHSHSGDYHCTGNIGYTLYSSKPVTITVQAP

T3: human FcγRIIaH extracellular domain with C-terminal His-tag (human, UniProt P12318 34-217)
T3 construct: also called human FcgRIIaH; FcγRIIa (type H); not shown: His-tag added to C-terminus
T3 sequence: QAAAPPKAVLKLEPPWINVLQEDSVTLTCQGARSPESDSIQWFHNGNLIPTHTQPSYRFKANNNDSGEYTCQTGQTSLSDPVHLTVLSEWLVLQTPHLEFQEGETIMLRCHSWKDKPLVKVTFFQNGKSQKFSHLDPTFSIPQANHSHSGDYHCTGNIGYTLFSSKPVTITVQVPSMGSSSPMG

T4: cynomolgus monkey FcγRIIa2 extracellular domain with C-terminal His-tag (cynomolgus monkey)
T4 construct: also called cyno FcgRIIa2; cynoFcγRIIa2; not shown: His-tag added to C-terminus
T4 chain: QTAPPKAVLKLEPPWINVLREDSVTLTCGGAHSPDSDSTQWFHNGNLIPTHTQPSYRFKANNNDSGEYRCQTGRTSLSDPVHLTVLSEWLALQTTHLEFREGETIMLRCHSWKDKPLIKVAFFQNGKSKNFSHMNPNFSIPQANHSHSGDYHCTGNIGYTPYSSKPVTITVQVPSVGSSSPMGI

T5: human FcγRIIb extracellular domain with C-terminal His-tag (human, UniProt P31994 43-217)
T5 construct: also called human FcgRIIb; not shown: His-tag added to C-terminus
T5 sequence: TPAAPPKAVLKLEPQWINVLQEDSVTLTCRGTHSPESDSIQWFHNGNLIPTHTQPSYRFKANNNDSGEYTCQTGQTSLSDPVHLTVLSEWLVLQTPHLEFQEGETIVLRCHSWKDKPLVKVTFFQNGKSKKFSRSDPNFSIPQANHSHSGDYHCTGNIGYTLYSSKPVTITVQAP


Experiments:
[1] = target: T1, cynomolgus monkey FcγRIIIaS …; assay: SPR, KD(parent SG1)/KD(variant)
[2] = target: T2, human FcγRIIb extracellular domain with …; assay: SPR, KD(parent SG1)/KD(variant)
[3] = target: T6, cynomolgus monkey FcγRIIIaS extracellular domain with C-terminal His-tag (cynomolgus monkey, UniProt A3RFZ7 21-206 (rhesus entry)); assay: SPR Biacore, antibody captured, FcgR analyte
T6 construct: also called cyno FcgRIIIaS; cynoFcγRIIIaS; not shown: His-tag added to C-terminus

[4] = target: T3, human FcγRIIaH extracellular domain …; assay: SPR Biacore, antibody captured, FcgR analyte
[5] = target: T7, human FcγRIIIaV extracellular domain with C-terminal His-tag (human, UniProt P08637 17-208); assay: SPR Biacore, antibody captured, FcgR analyte
T7 construct: also called human FcgRIIIaV; not shown: His-tag added to C-terminus

[6] = target: T4, cynomolgus monkey FcγRIIa2 …; assay: SPR Biacore, antibody captured, FcgR analyte
[7] = target: T5, human FcγRIIb extracellular domain with …; assay: SPR Biacore, antibody captured, FcgR analyte

T7 sequence (P08637 17-208 F176V): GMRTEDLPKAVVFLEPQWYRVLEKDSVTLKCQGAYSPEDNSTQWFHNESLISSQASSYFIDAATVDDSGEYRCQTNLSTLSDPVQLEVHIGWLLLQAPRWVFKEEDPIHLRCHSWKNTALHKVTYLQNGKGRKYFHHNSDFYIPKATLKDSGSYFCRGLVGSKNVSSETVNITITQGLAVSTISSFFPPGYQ

| KD fold (SG1 = 1) [1] [fold] | KD fold (SG1 = 1) [2] [fold] | KD fold (SG1 = 1) [3] [fold] | KD fold (SG1 = 1) [4] [fold] | KD fold (SG1 = 1) [5] [fold] | KD fold (SG1 = 1) [6] [fold] | Kd [3] [µM] | Kd [7] [µM] | Kd [4] [µM] | Binder |
| --- | --- | --- | --- | --- | --- | --- | --- | --- | --- |
| 0.11 | 0.5 | – | – | – | – | – | – | – | MS1032LO06-SG1012 (antibody, human IgG1, kappa, tied to rows r7/r25 by row order only; also called MS103205H795-SG1012; copies: 2 + 2) heavy: QVTLKESGPVLVKPTETLTLTCTVSGIDLSHDDISWVRQAPGKGLEWVGIISYAGSTYYASWAKGRLTISKDTSKNQVVLTMTNMDPVDTATYYCARGVPAYSHGGDLWGQGTLVTVSSASTKGPSVFPLAPSSKSTSGGTAALGCLVKDYFPEPVTVSWNSGALTSGVHTFPAVLQSSGLYSLSSVVTVPSSSLGTQTYICNVNHKPSNTKVDKKVEPKSCDKTHTCPPCPAPELLNGPSVFLFPPKPKDTLMISRTPEVTCVVVDVSEEDPEVKFNWYVDGVEVHNAKTKPREEQYNSTYRVVSVLTVLHQDWLNGKEYKCKVSNKALPKPIEKTISKAKGQPREPQVYTLPPSREEMTKNQVSLTCLVKGFYPSDIAVEWESNGQPENNYKTTPMVLDSDGSFFLYSKLTVDKSRWQQGNVFSCSVMHEALHAHYTQKSLSLSP light: DIVMTQSPATLSLSPGERATLSCTSSQSVYHANWLSWFQQKPGQPPKLLIYWASTLAYGVPSRFSGSGSGTDFTLTISSLQPEDAATYYCAGGYGGGRYAFGQGTKVEIKRTVAAPSVFIFPPSDEQLKSGTASVVCLLNNFYPREAKVQWKVDNALQSGNSQESVTEQDSKDSTYSLSSTLTLSKADYEKHKVYACEVTHQGLSSPVTKSFNRGEC |
| – | – | 0.15 | 0.8 | 0.03 | 6.1 | – | – | – | M103205H795-MY210/M103202L889-SK1 (antibody, human IgG1, kappa, name in EU numbering, substitutions in EU numbering, introduced into M103205H795-SG1) heavy: QVTLKESGPVLVKPTETLTLTCTVSGIDLSHDDISWVRQAPGKGLEWVGIISYAGSTYYASWAKGRLTISKDTSKNQVVLTMTNMDPVDTATYYCARGVPAYSHGGDLWGQGTLVTVSSASTKGPSVFPLAPSSKSTSGGTAALGCLVKDYFPEPVTVSWNSGALTSGVHTFPAVLQSSGLYSLSSVVTVPSSSLGTQTYICNVNHKPSNTKVDKKVEPKSCDKTHTCPPCPAPELLNGPSVFLFPPKPKDTLMISRTPEVTCVVVDVSDEDPEVKFNWYVDGVEVHNAKTKPREEQYNSTYRVVSVLTVLHQDWLNGKEYKCKVSNTALPKPIEKTISKAKGQPREPQVYTLPPSREEMTKNQVSLTCLVKGFYPSDIAVEWESNGQPENNYKTTPPVLDSDGSFFLYSKLTVDKSRWQQGNVFSCSVMHEALHNHYTQKSLSLSP light: DIVMTQSPATLSLSPGERATLSCTSSQSVYHANWLSWFQQKPGQPPKLLIYWASTLAYGVPSRFSGSGSGTDFTLTISSLQPEDAATYYCAGGYGGGRYAFGQGTKVEIKRTVAAPSVFIFPPSDEQLKSGTASVVCLLNNFYPREAKVQWKVDNALQSGNSQESVTEQDSKDSTYSLSSTLTLSKADYEKHKVYACEVTHQGLSSPVTKSFNRGEC |
| – | – | 0.13 | – | – | 2.8 | 2.7 | 1.2 | 1.1 | M103205H795-MY179/M103202L889-SK1 (antibody, human IgG1, kappa, name in EU numbering, EU numbering) heavy: QVTLKESGPVLVKPTETLTLTCTVSGIDLSHDDISWVRQAPGKGLEWVGIISYAGSTYYASWAKGRLTISKDTSKNQVVLTMTNMDPVDTATYYCARGVPAYSHGGDLWGQGTLVTVSSASTKGPSVFPLAPSSKSTSGGTAALGCLVKDYFPEPVTVSWNSGALTSGVHTFPAVLQSSGLYSLSSVVTVPSSSLGTQTYICNVNHKPSNTKVDKKVEPKSCDKTHTCPPCPAPELLNGPSVFLFPPKPKDTLMISRTPEVTCVVVDVSEEDPEVKFNWYVDGVEVHNAKTKPREEQYNSTYRVVSVLTVLHQDWLNGKEYKCKVSNKALPAPIEKTISKAKGQPREPQVYTLPPSREEMTKNQVSLTCLVKGFYPSDIAVEWESNGQPENNYKTTPRVLDSDGSFFLYSKLTVDKSRWQQGNVFSCSVMHEALHNHYTQKSLSLSP light: DIVMTQSPATLSLSPGERATLSCTSSQSVYHANWLSWFQQKPGQPPKLLIYWASTLAYGVPSRFSGSGSGTDFTLTISSLQPEDAATYYCAGGYGGGRYAFGQGTKVEIKRTVAAPSVFIFPPSDEQLKSGTASVVCLLNNFYPREAKVQWKVDNALQSGNSQESVTEQDSKDSTYSLSSTLTLSKADYEKHKVYACEVTHQGLSSPVTKSFNRGEC |
